The values below come from US20240139329A1 (CALIFORNIA INSTITUTE OF TECHNOLOGY, published 2024).

For assay [1], the target named is T1, Mouse SCA1 (LY6A), on cells (mouse, UniProt P05533 27-112).
T1 construct: whole, on cells; also called mouse LY6A
T1 sequence: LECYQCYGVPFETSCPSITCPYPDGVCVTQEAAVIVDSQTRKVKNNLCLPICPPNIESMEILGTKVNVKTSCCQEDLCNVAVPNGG
Nature of the assay: cell microarray, individual capsids, anti-AAV9 detection.
Description: To enable higher-throughput screening, the six capsids were tested as a pool. Pooled testing required additional dosage optimizing, first for the individual and then for the collective background binding levels of the included capsids (Table 5).

In assay [2] the target is T2, human interleukin 3 (IL3), expressed on microarray cells (human, UniProt P08700 20-152).
T2 construct: also called hIL3
T2 sequence: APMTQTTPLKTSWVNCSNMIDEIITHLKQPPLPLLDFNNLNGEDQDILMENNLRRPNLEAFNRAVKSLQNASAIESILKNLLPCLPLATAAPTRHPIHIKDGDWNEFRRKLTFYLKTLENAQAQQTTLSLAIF
Description: cell microarray screen hit (title of Table 4).

In assay [3] the target is T3, mouse LRP6-E1E2 (N-half, AA 20-628) tagged with Fc (mouse IgG2a) (mouse, UniProt O88572 20-628).
T3 construct: not shown: mouse IgG2a Fc
T3 sequence: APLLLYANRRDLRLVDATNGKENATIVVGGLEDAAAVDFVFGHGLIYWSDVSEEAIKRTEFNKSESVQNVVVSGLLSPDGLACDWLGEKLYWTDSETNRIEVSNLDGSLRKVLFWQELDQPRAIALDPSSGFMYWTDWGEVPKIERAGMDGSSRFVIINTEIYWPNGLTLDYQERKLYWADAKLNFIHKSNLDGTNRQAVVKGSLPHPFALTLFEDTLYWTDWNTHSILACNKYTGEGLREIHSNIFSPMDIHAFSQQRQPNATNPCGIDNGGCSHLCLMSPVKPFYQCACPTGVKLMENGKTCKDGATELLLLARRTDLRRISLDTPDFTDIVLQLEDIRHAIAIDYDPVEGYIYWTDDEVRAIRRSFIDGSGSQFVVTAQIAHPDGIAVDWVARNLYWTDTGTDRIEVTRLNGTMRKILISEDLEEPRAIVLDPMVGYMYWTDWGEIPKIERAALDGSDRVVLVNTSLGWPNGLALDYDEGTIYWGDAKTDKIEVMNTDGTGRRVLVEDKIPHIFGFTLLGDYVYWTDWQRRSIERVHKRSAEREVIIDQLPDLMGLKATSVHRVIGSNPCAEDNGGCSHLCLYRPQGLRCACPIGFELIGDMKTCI
Description: SPR, target-Fc captured on protein A chip, AAV analyte (FIG. 20B). A general note: In SPR one partner is held on a chip, and binding of the other changes the refractive index at the surface.

The target of assay [4] is T4, mouse LRP6-E3E4 (C-half, AA 629-1244) tagged with Fc (mouse IgG2a) (mouse, UniProt O88572 629-1244).
T4 construct: not shown: mouse IgG2a Fc
T4 sequence: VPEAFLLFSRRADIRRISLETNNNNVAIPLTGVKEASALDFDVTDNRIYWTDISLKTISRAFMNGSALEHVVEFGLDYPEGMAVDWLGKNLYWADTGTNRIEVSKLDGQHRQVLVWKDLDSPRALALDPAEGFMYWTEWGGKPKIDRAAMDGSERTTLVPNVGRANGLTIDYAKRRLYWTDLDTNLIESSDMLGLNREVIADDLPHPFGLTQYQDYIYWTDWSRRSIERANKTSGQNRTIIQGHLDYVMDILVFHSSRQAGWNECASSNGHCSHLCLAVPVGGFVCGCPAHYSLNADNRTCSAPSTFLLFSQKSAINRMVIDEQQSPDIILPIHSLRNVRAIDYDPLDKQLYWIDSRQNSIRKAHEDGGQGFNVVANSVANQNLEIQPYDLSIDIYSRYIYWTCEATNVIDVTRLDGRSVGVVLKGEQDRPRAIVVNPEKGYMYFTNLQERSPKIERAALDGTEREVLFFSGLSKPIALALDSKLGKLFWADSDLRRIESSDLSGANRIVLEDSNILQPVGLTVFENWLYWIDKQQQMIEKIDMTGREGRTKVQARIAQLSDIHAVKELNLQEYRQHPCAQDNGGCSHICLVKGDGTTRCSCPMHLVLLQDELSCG
The assay is described as above.

For assay [5], the target named is T1, Mouse SCA1 (LY6A), on cells. Description: cell microarray screen hit (membrane).
Description: After these controls, the six-capsid pool was tested in a full screen of approximately 6400 proteins, including 6000 human plasma membrane proteins and secreted and cell surface-tethered proteins, as well as approximately 400 heterodimers. […] To assign these hits to specific capsids, follow-up deconvolution screens were performed with each individual capsid from the pool (FIG. 12E). DNA oligos for the 22 identified hits, as well as the positive control CD86, were affixed in duplicate locations to new slides. A negative control condition with no AAV analyte and a positive control condition with CTLA4-Fc (CD86 binder) were also included.

B1: AAV-MaCPNS1 (other)
chain: MAADGYLPDWLEDNLSEGIREWWALKPGAPQPKANQQHQDNARGLVLPGYKYLGPGNGLDKGEPVNAADAAALEHDKAYDQQLKAGDNPYLKYNHADAEFQERLKEDTSFGGNLGRAVFQAKKRLLEPLGLVEEAAKTAPGKKRPVEQSPQEPDSSAGIGKSGAQPAKKRLNFGQTGDTESVPDPQPIGEPPAAPSGVGSLTMASGGGAPVADNNEGADGVGSSSGNWHCDSQWLGDRVITTSTRTWALPTYNNHLYKQISNSTSGGSSNDNAYFGYSTPWGYFDFNRFHCHFSPRDWQRLINNNWGFRPKRLNFKLFNIQVKEVTDNNGVKTIANNLTSTVQVFTDSDYQLPYVLGSAHEGCLPPFPADVFMIPQYGYLTLNDGSQAVGRSSFYCLEYFPSQMLRTGNNFQFSYEFENVPFHSSYAHSQSLDRLMNPLIDQYLYYLSRTINGSGQNQQTLKFSVAGPSNMAVQGRNYIPGPSYRQQRVSTTVTQNNNSEFAWPGASSWALNGRNSLMNPGPAMASHKEGEDRFFPLSGSLIFGKQGTGRDNVDADKVMITNEEEIKTTNPVATESYGQVATNHQSAQPHEGSSRAQAQTGWVQNQGILPGMVWQDRDVYLQGPIWAKIPHTDGNFHPSPLMGGFGMKHPPPQILIKNTPVPADPPTAFNKDKLNSFITQYSTGQVSVEIEWELQKENSKRWNPEIQYTSNYYKSNNVEFAVNTEGVYSEPRPIGTRYLTRNL
B1: the binding result in assay [1] is “no binding”; in assay [2], “binds”.

B2: AAV-BI30 (other)
chain: MAADGYLPDWLEDNLSEGIREWWALKPGAPQPKANQQHQDNARGLVLPGYKYLGPGNGLDKGEPVNAADAAALEHDKAYDQQLKAGDNPYLKYNHADAEFQERLKEDTSFGGNLGRAVFQAKKRLLEPLGLVEEAAKTAPGKKRPVEQSPQEPDSSAGIGKSGAQPAKKRLNFGQTGDTESVPDPQPIGEPPAAPSGVGSLTMASGGGAPVADNNEGADGVGSSSGNWHCDSQWLGDRVITTSTRTWALPTYNNHLYKQISNSTSGGSSNDNAYFGYSTPWGYFDFNRFHCHFSPRDWQRLINNNWGFRPKRLNFKLFNIQVKEVTDNNGVKTIANNLTSTVQVFTDSDYQLPYVLGSAHEGCLPPFPADVFMIPQYGYLTLNDGSQAVGRSSFYCLEYFPSQMLRTGNNFQFSYEFENVPFHSSYAHSQSLDRLMNPLIDQYLYYLSRTINGSGQNQQTLKFSVAGPSNMAVQGRNYIPGPSYRQQRVSTTVTQNNNSEFAWPGASSWALNGRNSLMNPGPAMASHKEGEDRFFPLSGSLIFGKQGTGRDNVDADKVMITNEEEIKTTNPVATESYGQVATNHQSAQNNSTRGGAQAQTGWVQNQGILPGMVWQDRDVYLQGPIWAKIPHTDGNFHPSPLMGGFGMKHPPPQILIKNTPVPADPPTAFNKDKLNSFITQYSTGQVSVEIEWELQKENSKRWNPEIQYTSNYYKSNNVEFAVNTEGVYSEPRPIGTRYLTRNL
Regarding B2, the binding result is given as “binds” in assay [3] and “no binding” in assay [4].

B3: AAV-MaCPNS2 (other)
chain: MAADGYLPDWLEDNLSEGIREWWALKPGAPQPKANQQHQDNARGLVLPGYKYLGPGNGLDKGEPVNAADAAALEHDKAYDQQLKAGDNPYLKYNHADAEFQERLKEDTSFGGNLGRAVFQAKKRLLEPLGLVEEAAKTAPGKKRPVEQSPQEPDSSAGIGKSGAQPAKKRLNFGQTGDTESVPDPQPIGEPPAAPSGVGSLTMASGGGAPVADNNEGADGVGSSSGNWHCDSQWLGDRVITTSTRTWALPTYNNHLYKQISNSTSGGSSNDNAYFGYSTPWGYFDFNRFHCHFSPRDWQRLINNNWGFRPKRLNFKLFNIQVKEVTDNNGVKTIANNLTSTVQVFTDSDYQLPYVLGSAHEGCLPPFPADVFMIPQYGYLTLNDGSQAVGRSSFYCLEYFPSQMLRTGNNFQFSYEFENVPFHSSYAHSQSLDRLMNPLIDQYLYYLSRTINGSGQNQQTLKFSVAGPSNMAVQGRNYIPGPSYRQQRVSTTVTQNNNSEFAWPGASSWALNGRNSLMNPGPAMASHKEGEDRFFPLSGSLIFGKQGTGRDNVDADKVMITNEEEIKTTNPVATESYGQVATNHQSAQPNASVNSAQAQTGWVQNQGILPGMVWQDRDVYLQGPIWAKIPHTDGNFHPSPLMGGFGMKHPPPQILIKNTPVPADPPTAFNKDKLNSFITQYSTGQVSVEIEWELQKENSKRWNPEIQYTSNYYKSNNVEFAVNTEGVYSEPRPIGTRYLTRNL
notes: also called AAV-MacCPNS2
On to B3, for which the binding result in assay [1] was “no binding”; in assay [2], “binds”.

B4: AAV.CAP-B22 (other)
chain: MAADGYLPDWLEDNLSEGIREWWALKPGAPQPKANQQHQDNARGLVLPGYKYLGPGNGLDKGEPVNAADAAALEHDKAYDQQLKAGDNPYLKYNHADAEFQERLKEDTSFGGNLGRAVFQAKKRLLEPLGLVEEAAKTAPGKKRPVEQSPQEPDSSAGIGKSGAQPAKKRLNFGQTGDTESVPDPQPIGEPPAAPSGVGSLTMASGGGAPVADNNEGADGVGSSSGNWHCDSQWLGDRVITTSTRTWALPTYNNHLYKQISNSTSGGSSNDNAYFGYSTPWGYFDFNRFHCHFSPRDWQRLINNNWGFRPKRLNFKLFNIQVKEVTDNNGVKTIANNLTSTVQVFTDSDYQLPYVLGSAHEGCLPPFPADVFMIPQYGYLTLNDGSQAVGRSSFYCLEYFPSQMLRTGNNFQFSYEFENVPFHSSYAHSQSLDRLMNPLIDQYLYYLSRTIDGQSSKSQTLKFSVAGPSNMAVQGRNYIPGPSYRQQRVSTTVTQNNNSEFAWPGASSWALNGRNSLMNPGPAMASHKEGEDRFFPLSGSLIFGKQGTGRDNVDADKVMITNEEEIKTTNPVATESYGQVATNHQSDGTLAVPFKAQAQTGWVQNQGILPGMVWQDRDVYLQGPIWAKIPHTDGNFHPSPLMGGFGMKHPPPQILIKNTPVPADPPTAFNKDKLNSFITQYSTGQVSVEIEWELQKENSKRWNPEIQYTSNYYKSNNVEFAVNTEGVYSEPRPIGTRYLTRNL
notes: also called AAV9.CAP-B22
Turning to B4, the binding result in assay [2] and in assay [5] was “binds” each time.
